B1: 85801_04G19 (antibody, V domains shown)
VH: QVQLQESGPGLVKPSETLSLTCTVSGGSISSYYWSWIRQSAGKELEWIGRIYTSGSTIYNPSLKSRVTMSVDPSKNQFSLKLSSVTAADTAVYYCANSRSYPHDAFDIWGQGTMVTVSS
VL: DIQLTQSPSFLSASVGYRVTITCRASQGISSYLAWYQQKPGKAPQLLIYAASTLQSGVPSRFSGRGSGTEFTLTISSLQPEDFATYYCQQLNGYPFTFGPGTKVNIK
notes: also called 85801_04G19A
B2: 85801_10K15 (antibody, V domains shown)
VH: QITLKESGPTLVKPTQTLTLTCTFFGFSLNTGGVGVGWIRQPPGKALEWLTLIYWNDDKRYSPSLKSRLTITKDTSKNQVVLTMTNMDPVDTATYYCAHTLRWYHGFDIWGQGTMVTVSS
VL: QTVVTQEPSFSVSPGGTVTLTCGLTSGSVSTSYYPSWYQQTPGQAPRTLIYSTYTRSSGVPDRFSGSILGNKAALTITGAQADDESDYYCVLYMGSGIWVFGGGTKLTVL
notes: also called 85801_10K15A
B3: DGL606 (bispecific antibody, V domains shown)
V domain 1: QLQLVESGGGLVQPGGSLRLSCAASGFTFSSYGMSWVRQAPGKGLEWVSYISAGGGTTTYVDFVKGRFTISRDNAKNMLYLQMNSLKPEDTAVYYCVHAADGSRGQGTQVTVEP
V domain 2: QVQLEESGGGLVQAGGSLRLSCAASGRTFSSYVVGWFRQAPGKEREFVGRISWSGARTYYADSVEGRFTISRDNAKNTVYLQMNSLKPEDTAVYYCAADLKWEVLLSEHYEYWGQGTQVTVEP
notes: 238B1 x 219B2
B4: DGL421 (bispecific antibody, human IgG1, lambda)
heavy 1: not shown
heavy 2: QVQLQESGPGLVKPSQTLSLTCTVSGGSITTNYYYWSWIRQPPGKGLEWMGAIAYSGSTYYSPSLKSRTSISRDTSKNQFTLQLSSVTPEDTAVYYCASGINFYSNYPTLNEYDYWGQGTQVTVEPKSSDKTHTCPPCPAPEAAGAPSVFLFPPKPKDTLMISRTPEVTCVVVDVSHEDPEVKFNWYVDGVEVHNAKTKPREEQYNSTYRVVSVLTVLHQDWLNGKEYKCKVSNKALPAPIEKTISKAKGQPREPQVCTLPPSRDELTKNQVSLSCAVKGFYPSDIAVEWESNGQPENNYKTTPPVLDSDGSFFLVSKLTVDKSRWQQGNVFSCSVMHEALHNRFTQKSLSLSPG
light: QTVVTQEPSFSVSPGGTVTLTCGLTSGSVSTSYYPSWYQQTPGQAPRTLIYSTYTRSSGVPDRFSGSILGNKAALTITGAQADDESDYYCVLYMGSGIWVFGGGTKLTVLGQPKAAPSVTLFPPSSEELQANKATLVCLISDFYPGAVTVAWKADSSPVKAGVETTTPSKQSNNKYAASSYLSLTPEQWKSHRSYSCQVTHEGSTVEKTVAPTECS
notes: 85801_10K15A x 190B2
B5: DGL569 (bispecific antibody, V domains shown)
V domain 1: QVQLVESGGGLVQAGGSLRLSCAASRSISSFNEMAWYRQAPGEQRELVATIVSTVGFTNYADSVKGRFTISRDNAKNTVYLQMNSLKAEDTAVYYCNARRISTDYWGQGTQVTVEP
V domain 2: QVQLVESGGGLVQPGGSLRLSCAASGFTFSNYAMSWVRQAPGKGLEWVSAINSDGTSTSYADSVKGQFTISRDNAKNTLYLQMNSLKPEDTAVYYCTKWEGDTDSDYKFKDYWGQGTQVTVEP
notes: 233B1 x 19B2
B6: DGL495 (bispecific antibody, V domains shown)
V domain 1: EVQLVESGGGLVQAGGSLRLSCAASGLTFRNYAMAWFRQAPGKEREFVAGITWGGGLTHYVDSVKGRFTISRDNGKNTVYLQMNSLKSEDTAVYYCAGKTQGSTWYHLTPDGYDYWGQGTQVTVEP
V domain 2: B5 V domain 2
B7: DGL568 (bispecific antibody, V domains shown)
V domain 1: B5 V domain 1
V domain 2: QVQLVESGGGLVRPGGSLRLSCAASGFTFSSNGMHWFRQAPGKGLEWVSSIGSGGTSIYYADSVKGRFTISRDNAKNTLYLQMNSLKSDDTAVYYCSKEVTGATRGQGTQVTVEP
notes: 233B1 x 13B2
B8: DGL572 (bispecific antibody, V domains shown)
V domain 1: B5 V domain 1
V domain 2: QVQLVESGGGLVQPGGSLRLSCAASGFTFEPYDMSWFRQAPGKGPEWVSAIDKGGGAGATYYADSVKGRFTISRDNAKKTLYLQMKSLKPEDTAVYYCAITAGPYSDSTPRVAYRGEGTQVTVEP
notes: 233B1 x 93B2
B9: DGL481 (bispecific antibody, V domains shown)
V domain 1: QVQLVESGGGLVQAGGSLRLSCAASARIFNSYAVAWFRQTPGKEREFVASISWSGGSTNYADSVKGRFTISRDNAKNTVFLQMNSLKPADTAVYYCAADRNYYPSVLGKYTYWGQGTQVTVEP
V domain 2: B5 V domain 2
notes: 67B1 x 19B2
B10: DGL516 (bispecific antibody, V domains shown)
V domain 1: QVQLVESGGGLAQAGGSLRLSCAASGRTFSNDDMAWFRQAPGKEREFVAHIDRNAASTNYADSVKGRFTISRDNAKNTVYLQMTRLKPEDTAVYYCAADPDHFGTTWYQQYTYWGPGTQVTVEP
V domain 2: B8 V domain 2
notes: 97B1 x 93B2
B11: DGL424 (bispecific antibody, human IgG1, lambda)
heavy 1: not shown
heavy 2: QVTLRESGPALVKPTQTLTLTCTFSGFSLSTSGMCVSWIRQPPGKALEWLALIYWDDDKYYSTSLKTRLTISKDTSKNQVVLTMTNMDPVDTATYYCARMRRGIEAFDIWGQGTMVTVFSASTKGPSVFPLAPSSKSTSGGTAALGCLVKDYFPEPVTVSWNSGALTSGVHTFPAVLQSSGLYSLSSVVTVPSSSLGTQTYICNVNHKPSNTKVDKKVEPKSCDKTHTCPPCPAPEAAGAPSVFLFPPKPKDTLMISRTPEVTCVVVDVSHEDPEVKFNWYVDGVEVHNAKTKPREEQYNSTYRVVSVLTVLHQDWLNGKEYKCKVSNKALPAPIEKTISKAKGQPREPQVCTLPPSRDELTKNQVSLSCAVKGFYPSDIAVEWESNGQPENNYKTTPPVLDSDGSFFLVSKLTVDKSRWQQGNVFSCSVMHEALHNRFTQKSLSLSPG
light: QSVLTQPPSVSGAPGQRVTISCTGSSSNIGAGYDVHWYQQLPGTAPKLLIFGYSNRPSGVPVRFSGSKSGTSASLAITGLLAEDEADFYCQSFDISLTGWVFGGGTKLTVLGQPKAAPSVTLFPPSSEELQANKATLVCLISDFYPGAVTVAWKADSSPVKAGVETTTPSKQSNNKYAASSYLSLTPEQWKSHRSYSCQVTHEGSTVEKTVAPTECS
notes: 54B1 x 85802_10K12A

For the first assay, the target named is T1, cyno IL-12RB1 overexpressed on 293T cells (Example 2) (cyno, UniProt A0A2K5VWV1 24-662).
T1 construct: whole, on cells
Kind of assay: FACS, hybridoma supernatant, 293T.
In the case of B1, the “Fold over parental 293T” value worked out at 116 fold.
Still for that read-out and setting: the result for B2 reads 21 fold.

A further assay has as its target T2, human IL-12RB1 overexpressed on 293T cells (Example 2) (human, UniProt P42701 24-662).
T2 construct: whole, on cells
Nature of the assay: FACS, hybridoma supernatant, 293T. On the technique in general: A flow cytometer gives signals particle by particle.
Regarding B1, the “Fold over parental 293T” value stood at 262 fold.
Take B2: the “Fold over parental 293T” value is 57 fold.

Another assay addresses human IL-12Rβ1, Acro (BLI analyte) (human, UniProt P42701 24-545). Kind of assay: BLI (Octet), antibody on AHC tip.
A word on the Kd: it is a measure of binding affinity in units of concentration. Lower therefore signals tighter binding. B3: the Kd came out at 2.68 nM.
Turning to B4, the affinity, expressed as Kd, was 6.06 nM. Compared with the last molecule, the Kd is about 2.3-fold higher.
On the same count and under the same terms, under B5 stands 1.7 nM; under B6, 10.7 nM.
In turn, B7 showed a dissociation constant Kd of 1.78 nM. This Kd is about 6-fold lower than that of the molecule before.
The same measure, in the same setting: under B8 stands 1.48 nM; under B9, 7.17 nM.
Molecule B10 registered a Kd of 27.3 nM. This Kd lies about 3.8-fold higher than the previous one.

In another assay the target is T3, human IL-12Rβ2, Acro (BLI analyte) (human, UniProt Q99665 24-622, limits assumed).
T3 sequence (looked up): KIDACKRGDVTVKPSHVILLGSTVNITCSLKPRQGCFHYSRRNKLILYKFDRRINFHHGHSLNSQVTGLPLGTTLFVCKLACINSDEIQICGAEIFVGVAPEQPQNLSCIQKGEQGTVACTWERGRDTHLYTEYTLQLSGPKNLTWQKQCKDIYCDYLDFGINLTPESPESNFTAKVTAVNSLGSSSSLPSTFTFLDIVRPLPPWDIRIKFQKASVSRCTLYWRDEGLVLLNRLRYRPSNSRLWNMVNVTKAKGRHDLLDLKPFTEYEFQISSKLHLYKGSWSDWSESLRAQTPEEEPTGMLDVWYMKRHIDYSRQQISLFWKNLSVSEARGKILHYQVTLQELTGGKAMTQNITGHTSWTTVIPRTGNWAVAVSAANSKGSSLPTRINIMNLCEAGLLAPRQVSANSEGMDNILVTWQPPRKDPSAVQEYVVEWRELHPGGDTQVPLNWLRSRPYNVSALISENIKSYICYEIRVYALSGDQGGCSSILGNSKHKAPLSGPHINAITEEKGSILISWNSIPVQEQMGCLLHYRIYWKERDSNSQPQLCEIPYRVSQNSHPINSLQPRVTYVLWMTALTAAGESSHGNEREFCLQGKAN
Kind of assay: BLI (Octet), antibody on AHC tip.
Take B11: the Kd came out at 0.726 nM.
Still for that read-out and setting: the result for B3 reads 6.03 nM.
Same read-out and setting: the result for B5 reads 0.723 nM; that for B6, 0.77 nM; that for B7, 2.34 nM.
B8 displayed a dissociation constant (Kd) of 2.41 nM. The Kd values of the last two molecules are within 1.5-fold of each other.
B9 returned a Kd of 0.772 nM.
On the same count and under the same terms, under B10 stands 3.41 nM.

The next assay has as its target human IL-12 receptor (IL-12Rβ1 and IL-12Rβ2) on HEK-Blue IL-12 cells (human, UniProt P42701 24-662; Q99665 24-862). Nature of the assay: cell-based or functional assay.
The term EC50 denotes the midpoint of the concentration-response curve. B11: the EC50 is 2.6e-10 M (implied) and the “Max Absorbance” value was 1.49.
The corresponding values for B3 are 8.8e-09 M (implied) and 0.92.
Taken in the same sequence, the figures for B4 were 1.1e-09 M (implied) and 0.9.
Taken in the same sequence, the figures for B5 were 5.2e-09 M (implied) and 1.19.
For B6, the EC50 was 6.4e-10 M (implied) and the “Max Absorbance” value is 0.96.
The corresponding values for B7 are more than 100 nM and 0.91.
B8: the EC50 was 1.2e-08 M (implied) and the “Max Absorbance” value was 1.05.
The corresponding values for B9 are 3.3e-10 M (implied) and 0.93.
The corresponding values for B10 are 6.5e-11 M (implied) and 1.05.

Source of the values: patent US20250019450A1 (DIAGONAL THERAPEUTICS, published 2025).
